We go through three substances from article PMC7568402.

This data set deals with CC(=O)N[C@H]1[C@H](Oc2ccc([N+](=O)[O-])cc2)O[C@H](CO)[C@@H](O)[C@@H]1O. In words: p-nitrophenol release, A405, non-linear regression. Type of data set: biochemical, Bifidobacterium longum subsp. infantis. As to conditions: pH 5.0, 37 °C, 50 mM Na2HPO4, apparent kinetics.

As a reminder, the Km is the concentration of substrate that gives half-maximal velocity. In general, kcat refers to the number of substrate molecules converted per active site and unit of time at saturation. As a reminder, the kcat/Km is the turnover number divided by the Michaelis constant. As for “Blon_0732 (Bifidobacterium longum subsp. infantis ATCC 15697 = JCM 1222 = DSM 20088)”, the Michaelis constant (Km) came to 1640 ± 850 µM, the kcat turned out to be 104 ± 46.2 s⁻¹ and the kcat/Km turned out to be 65000 ± 543 M⁻¹ s⁻¹.

Regarding “Blon_2355 (Bifidobacterium longum subsp. infantis ATCC 15697 = JCM 1222 = DSM 20088)”, the Km amounted to 480 ± 20 µM.

With “Blon_0459 (Bifidobacterium longum subsp. infantis ATCC 15697 = JCM 1222 = DSM 20088)”, the Michaelis constant (Km) was determined as 330 ± 40 µM.
